The source of these data is PMC10071571, “Site‐directed mutagenesis improves the practical application of L‐glutamic acid decarboxylase in Escherichia coli” (Engineering in Life Sciences, 2023).

The target of data set [1] is T1, Gad B (Escherichia coli, UniProt P69910).
T1 construct: gene gadB; full length (1401 bp), pET-30a(+) His tag, expressed in E. coli BL21(DE3), Ni-NTA purified; about 53 kDa on SDS-PAGE; homo-hexamer
T1 sequence (P69910 1-466): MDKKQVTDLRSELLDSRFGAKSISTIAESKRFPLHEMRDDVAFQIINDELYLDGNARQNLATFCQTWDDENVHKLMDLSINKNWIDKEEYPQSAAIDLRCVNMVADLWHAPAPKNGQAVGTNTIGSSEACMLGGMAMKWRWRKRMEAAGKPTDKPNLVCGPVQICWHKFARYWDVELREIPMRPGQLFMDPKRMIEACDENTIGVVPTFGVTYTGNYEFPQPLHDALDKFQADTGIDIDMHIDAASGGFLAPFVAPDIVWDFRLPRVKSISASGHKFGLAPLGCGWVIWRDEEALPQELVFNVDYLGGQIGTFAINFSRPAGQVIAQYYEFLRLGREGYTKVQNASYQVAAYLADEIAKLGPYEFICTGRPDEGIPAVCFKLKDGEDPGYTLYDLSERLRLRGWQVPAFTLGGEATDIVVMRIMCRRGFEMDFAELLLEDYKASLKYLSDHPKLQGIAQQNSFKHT
The data set is described as follows: GABA formation at varied PLP concentration (HPLC). In kind it is biochemical. The note with it: coenzyme added to L-glutamate reaction; no constant.

In data set [2] the test system is T2, N[C@@H](CCC(=O)O)C(=O)O.
T2 construct: full length (1401 bp), pET-30a(+) His tag, expressed in E. coli BL21(DE3), Ni-NTA purified; about 53 kDa on SDS-PAGE; homo-hexamer
The data set is described as follows: HPLC of GABA formed; Lineweaver-Burk plot. In kind it is biochemical, Escherichia coli. Conditions: substrate buffer with 0.05 mM PLP, phosphate buffer, 30 min, pH and temperature of the kinetics not given (optimum pH 4.3, 37 °C). An excerpt: (§1) HPLC of GABA formed; Lineweaver-Burk plot on Gad B

Substrate in data set [3]: N[C@@H](CCC(=O)O)C(=O)O
The data set is described as follows: HPLC of GABA formed; Lineweaver-Burk plot. The data set is classed as biochemical, Escherichia coli. The note with it: substrate buffer with 0.05 mM PLP, phosphate buffer, 30 min, pH and temperature of the kinetics not given (optimum pH 4.3, 37 °C).
From the text: as §1

As to `Cc1ncc(COP(=O)(O)O)c(C=O)c1O` [PLP], the “GABA formation at varied PLP concentration (HPLC)” value in data set [1] is “enzyme activity of wild‐type Gad B and Gad B‐T62S mutants was highest when using the coenzyme PLP”.

For Gad B (Escherichia coli K-12; Q309A), in data set [2], the Michaelis constant (Km) (usually the substrate concentration at which the rate is half of its maximum) was determined as 7.2 ± 3.8 mM and the Vmax (in general, the rate approached at saturating substrate) worked out at 87.3 µmol/min/mg.

Take Gad B (Escherichia coli K-12; T62S): in data set [2], the Km was 7.3 ± 2.5 mM and the maximum rate (Vmax) amounted to 76.1 µmol/min/mg.

B1: Gad B (Escherichia coli K-12) (protein)
chain: T1 sequence (P69910 1-466)
notes: full length (1401 bp), pET-30a(+) His tag, expressed in E. coli BL21(DE3), Ni-NTA purified; about 53 kDa on SDS-PAGE; homo-hexamer
Consider B1, for which, in data set [3], the Km was found to be 11.3 ± 2.1 mM and the maximum rate (Vmax) came to 32.1 µmol/min/mg.
